Where no end group is shown, it is not given here.
Assays:
[1] = molecular target: T1, HIV-1 reverse transcriptase, heterodimeric p66/p51 (HIV-1), P03366; assay: RT polymerase inhibition assay, Ki from Dixon plot
[2] = molecular target: T1, HIV-1 reverse transcriptase, …; assay: RT polymerase inhibition assay, Ki
[3] = molecular target: T1, HIV-1 reverse transcriptase, …; assay: RT polymerase inhibition assay
HIV-1 integrase (HIV-1) [4] = assay: steady state fluorescence and anisotropy
HIV-1 integrase (HIV-1) [5] = assay: IN 3′ processing inhibition, fluorescence anisotropy
HIV-1 integrase (HIV-1) [6] = assay: cell-based or functional assay
HIV-1 integrase (HIV-1) [7] = assay: dissociation of the IN/LEDGF complex, AlphaScreen and immunoprecipitation; partner displaced: LEDGF
[8] = molecular target: T2, RT:p/t (HIV-1 RT heterodimer pre-bound to DNA/DNA primer/template) (HIV-1), P03366; assay: steady-state fluorescence titration, 200 nM FITC-PAW titrated with RT:p/t
HIV-1 integrase (HIV-1) [9] = assay: steady-state fluorescence anisotropy, fluorescein-labelled peptide titrated with IN
[10] = molecular target: T2, RT:p/t (HIV-1 RT heterodimer pre-bound …); assay: steady-state fluorescence titration
[11] = molecular target: T1, HIV-1 reverse transcriptase, …; assay: steady-state fluorescence titration, 200 nM FITC-PAW titrated with RT
[12] = molecular target: HA-tagged Integrase (stably expressed in HeLa cells) (HIV-1); assay: cell-based or functional assay
[13] = molecular target: T2, RT:p/t (HIV-1 RT heterodimer pre-bound …); assay: steady-state fluorescence titration, 20 nM RT:FAM-p/t titrated with PAW

B1: P4 (peptide)
peptide: GTAALTEVIPLTEEAE
modifications: not checked
[1]
  Ki: 15 µM
[2]
  fold reduction in potency against P1: 2 fold

B2: P16C1 (peptide)
peptide: CGTKWLTEVWPLC
modifications: not checked
[3]
  Ki: 32.1 µM
HIV-1 integrase (HIV-1) [4]
  Kd: 0.09 µM
HIV-1 integrase (HIV-1) [5]
  Ki: 4.3 µM

B3: P29 (peptide)
peptide: KWLTEWIPLTAE
modifications: not checked
[1]
  Ki: 1 µM

B4: P17 (peptide)
peptide: GTKAWTEVWPL
modifications: not checked
[1]
  Ki: 35 µM
[2]
  fold reduction in efficiency against PAW: 50 fold

B5: P28 (peptide)
peptide: GTKWATEWAPLTAEAE
modifications: not checked
[1]
  Ki: 2 µM

B6: P18 (peptide)
peptide: GTKALTEVIPLT
modifications: not checked
[1]
  Ki: 53 µM

B7: P2 (peptide)
peptide: ATKALTEVIPLTEEAE
modifications: not checked
[1]
  Ki: 28 µM

B8: Pep-A (peptide)
peptide: RGTKALTEVIPLTEEAE
modifications: not checked
[1]
  Ki: 35 µM

B9: P10 (peptide)
peptide: GTKALTEVAPLTEEAE
modifications: not checked
[1]
  Ki: 7.3 µM

B10: P27 (peptide)
peptide: GTKWLTEWIPLTAE
modifications: not checked
[3]
  Ki: 0.05 µM
HIV-1 integrase (HIV-1) [4]
  Kd: > 100 µM
[1]
  Ki: 0.05 µM
HIV-1 integrase (HIV-1) [5]
  Ki: > 100 µM
HIV-1 integrase (HIV-1) [6]
  EC50 (µM) 3′processing: > 100 µM
  EC50 (µM) IN/DNA binding: > 100 µM
  EC50 (µM) IN/DNA dissociation: > 100 µM
[2]
  fold increase in efficiency against PAW: 14 fold

B11: P19 (peptide)
peptide: GTKAATEVIPLT
modifications: not checked
[1]
  Ki: 49 µM

B12: P13 (peptide)
peptide: GTKALTEVIPLAEEAE
modifications: not checked
[1]
  Ki: 10.2 µM

B13: P16 (peptide)
peptide: GTKWLTEVWPL
modifications: not checked
[3]
  Ki: 14.4 µM
HIV-1 integrase (HIV-1) [4]
  Kd: 0.12 µM
HIV-1 integrase (HIV-1) [7]
  EC50: 0.8 µM
[1]
  Ki: 14 µM
HIV-1 integrase (HIV-1) [5]
  Ki: 10 µM
HIV-1 integrase (HIV-1) [6]
  EC50 (µM) 3′processing: 10 µM
  EC50 (µM) IN/DNA binding: 8 µM
  EC50 (µM) IN/DNA dissociation: 11 µM
[2]
  fold reduction in efficiency against PAW: 20 fold

B14: PAW-C1 (peptide)
peptide: CGTKWLTEWIPLTAEAEC
modifications: not checked
[3]
  Ki: 0.2 µM
HIV-1 integrase (HIV-1) [4]
  Kd: 0.29 µM
HIV-1 integrase (HIV-1) [5]
  Ki: 21 µM

B15: P5 (peptide)
peptide: GTKGLTEVIPLTEEAE
modifications: not checked
[1]
  Ki: 20 µM
[2]
  fold reduction in potency against P1: 2.7 fold

B16: P7 (peptide)
peptide: GTKALAEVIPLTEEAE
modifications: not checked
[1]
  Ki: 13.5 µM
[2]
  fold reduction in potency against P1: 2 fold

B17: PAW-FITC (peptide)
peptide: GTKWLTEWIPLTAEAEC
modifications: not fully specified
[8]
  Kd: 0.0071 µM
  quenching of FITC-PAW fluorescence: 57%
[1]
  Ki: 2.7 µM
HIV-1 integrase (HIV-1) [9]
  Kd: 0.4 µM
  Δr (change of steady-state anisotropy): 0.06
HIV-1 integrase (HIV-1) [6]
  IC50 3′-proc (gel electrophoresis): 10 µM
[10]
  fold increase in affinity against RT without p/t: 5 fold
  fold lower Kd than unlabelled PAW: 5.6 fold
[2]
  fold greater Ki than PAW: 3.8 fold
[11]
  Kd: 0.033 µM
  quenching of FITC-PAW fluorescence: 39%

B18: PAW (peptide)
peptide: GTKWLTEWIPLTAEAE
modifications: not checked
[3]
  Ki: 0.7 µM
HIV-1 integrase (HIV-1) [4]
  Kd: 0.23 µM
HIV-1 integrase (HIV-1) [7]
  EC50: 2 µM
[1]
  Ki: 0.7 µM
HIV-1 integrase (HIV-1) [5]
  Ki: 12 µM
HIV-1 integrase (HIV-1) [6]
  EC50 (µM) 3′processing: 12 µM
  EC50 (µM) IN/DNA binding: 10 µM
  EC50 (µM) IN/DNA dissociation: 15 µM
  IC50 3′-proc: 12.7 µM
[12]
  IN half-life (cycloheximide treatment, 1 µM PAW): 17 min
  integrase located in the nucleus (High Content Screening, HeLa cells): 35%
[13]
  Kd: 0.04 µM
  quenching of fluorescence of FAM-labelled p/t: 39%
[2]
  fold improvement in efficiency over P6: 10 fold
  fold improvement in efficiency over Pep-A: 50 fold

B19: P24 (peptide)
peptide: GTKWLTEWIPL
modifications: not checked
HIV-1 integrase (HIV-1) [4]
  Kd: 0.35 µM
HIV-1 integrase (HIV-1) [7]
  EC50: 13 µM
[1]
  Ki: 0.7 µM
HIV-1 integrase (HIV-1) [6]
  EC50 (µM) 3′processing: 33 µM
  EC50 (µM) IN/DNA binding: 35 µM
  EC50 (µM) IN/DNA dissociation: 21 µM

B20: P27C1 (peptide)
peptide: CGTKWLTEWIPLTAEC
modifications: not checked
[3]
  Ki: 0.042 µM
HIV-1 integrase (HIV-1) [5]
  Ki: > 100 µM

B21: PAW-C2 (peptide)
peptide: GCKWLTEWIPLTAEAEC
modifications: not checked
[3]
  Ki: 1.4 µM
HIV-1 integrase (HIV-1) [4]
  Kd: 0.12 µM
HIV-1 integrase (HIV-1) [5]
  Ki: 8 µM

B22: P11 (peptide)
peptide: GTKALTEVIALTEEAE
modifications: not checked
[1]
  Ki: 7 µM

B23: Pscramble (peptide)
peptide: GAKTETLVIPETELEA
modifications: not checked
[1]
  Ki: 61 µM

B24: P12 (peptide)
peptide: GTKALTEVIPATEEAE
modifications: not checked
[1]
  Ki: 22 µM

B25: P26 (peptide)
peptide: KWLTEWIPLTAEAE
modifications: not checked
HIV-1 integrase (HIV-1) [4]
  Kd: 0.32 µM
HIV-1 integrase (HIV-1) [7]
  EC50: > 50 µM
[1]
  Ki: 1.8 µM
HIV-1 integrase (HIV-1) [6]
  EC50 (µM) 3′processing: 28 µM
  EC50 (µM) IN/DNA binding: 54 µM
  EC50 (µM) IN/DNA dissociation: 67 µM
[2]
  fold reduction in efficiency against PAW: 2.5 fold

B26: P9 (peptide)
peptide: GTKALTEAIPLTEEAE
modifications: not checked
[1]
  Ki: 15 µM
[2]
  fold reduction in potency against P1: 2 fold

B27: P8 (peptide)
peptide: GTKALTAVIPLTEEAE
modifications: not checked
[1]
  Ki: 57 µM
[2]
  fold reduction in efficiency against P1: 8 fold

B28: P6 (peptide)
peptide: GTKAATEVIPLTEEAE
modifications: not checked
[1]
  Ki: 5.7 µM

B29: P1 (peptide)
peptide: GTKALTEVIPLTEEAE
modifications: not checked
[1]
  Ki: 7.5 µM
[2]
  fold increase in potency against Pep-A: 5 fold

Reference: patent US20110294728A1, “Antiviral Polypeptides” (priority 2008, published 2011)
